This note sets out measurements from PMC5748837, “Biochemical characterization of INTS3 and C9ORF80, two subunits of hNABP1/2 heterotrimeric complex in nucleic acid binding” (Biochemical Journal, 2017).

The experiment concerns the target T1, GST-tagged N-terminal region of INTS3 (GST-INTS3^N, 1-513 amino acids) (human, UniProt Q68E01 1-513).
T1 construct: Integrator complex subunit 3 (INTS3), human, N-terminal region, residues 1-513; pGEX-6P-1; source: E. coli Rosetta 2, purified (glutathione sepharose beads); not shown: GST, N-terminal, kept
As to the kind of experiment: pull-down; GST-INTS3^FL, -INTS3^N or -INTS3^C incubated with hNABP1/2 or C9ORF80 at 4 C for 1 h, then glutathione-agarose beads 1 h; eluted with 10 mM glutathione; Western blot. The settings on record: both partners purified. Background: A western blot detects proteins with antibodies after separation by electrophoresis.

T1 sequence (Q68E01 1-513): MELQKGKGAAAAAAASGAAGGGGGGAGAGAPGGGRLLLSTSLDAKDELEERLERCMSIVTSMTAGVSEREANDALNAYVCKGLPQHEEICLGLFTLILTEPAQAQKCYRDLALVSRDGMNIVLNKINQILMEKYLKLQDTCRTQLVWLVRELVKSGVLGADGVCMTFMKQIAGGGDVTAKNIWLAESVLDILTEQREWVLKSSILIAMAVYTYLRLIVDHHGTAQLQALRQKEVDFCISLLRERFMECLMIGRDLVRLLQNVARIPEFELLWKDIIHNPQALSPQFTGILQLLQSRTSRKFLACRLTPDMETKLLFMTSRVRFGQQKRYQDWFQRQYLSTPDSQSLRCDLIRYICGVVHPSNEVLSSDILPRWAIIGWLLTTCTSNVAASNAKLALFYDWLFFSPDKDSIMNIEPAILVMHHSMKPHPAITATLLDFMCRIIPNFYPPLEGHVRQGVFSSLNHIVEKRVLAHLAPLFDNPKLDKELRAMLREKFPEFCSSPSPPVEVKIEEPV

B1: Human nucleic acid-binding protein 2 (hNABP2) (natural protein, UniProt Q9BQ15 1-211, looked up)
chain: MTTETFVKDIKPGLKNLNLIFIVLETGRVTKTKDGHEVRTCKVADKTGSINISVWDDVGNLIQPGDIIRLTKGYASVFKGCLTLYTGRGGDLQKIGEFCMVYSEVPNFSEPNPEYSTQQAPNKAVQNDSNPSASQPTTGPSAASPASENQNGNGLSAPPGPGGGPHPPHTPSHPPSTRITRSQPNHTPAGPPGPSSNPVSNGKETRRSSKR
notes: also called hSSB1; source: also co-expressed (pET29a) with GST-INTS3 and C9ORF80 in E. coli Rosetta 2, in lysate
Regarding B1, the binding result is given as “binds”.

B2: C9ORF80, His-tagged (natural protein, human, UniProt Q9NRY2 1-104, looked up)
chain: MAANSSGQGFQNKNRVAILAELDKEKRKLLMQNQSSTNHPGASIALSRPSLNKDFRDHAEQQHIAAQQKAALQHAHAHSSGYFITQDSAFGNLILPVLPRLDPE
notes: C9ORF80, human cDNA clone; pET28a, NcoI/XhoI sites (this would give a C-terminal His tag); the printed masses fit the whole 104-residue protein; also called C9OFR80; source: peak 2); also co-expressed with GST-INTS3 and hNABP1/2 in E. coli Rosetta 2, in lysate
B2: the binding result is on record as “binds”.

B3: Human nucleic acid-binding protein 1 (hNABP1) (natural protein, UniProt Q96AH0 1-204, looked up)
chain: MNRVNDPLIFIRDIKPGLKNLNVVFIVLEIGRVTKTKDGHEVRSCKVADKTGSITISVWDEIGGLIQPGDIIRLTRGYASMWKGCLTLYTGRGGELQKIGEFCMVYSEVPNFSEPNPDYRGQQNKGAQSEQKNNSMNSNMGTGTFGPVGNGVHTGPESREHQFSHAGRSNGRGLINPQLQGTASNQTVMTTISNGRDPRRAFKR
notes: also called hSSB2; source: also co-expressed (pET29a) with GST-INTS3 and C9ORF80 in E. coli Rosetta 2, in lysate
On to B3, for which the binding result is given as “binds”.
